Measurements from paper PMC7150784.

Experiments:
[1] = target: lizard alpha-1 nAChR orthosteric site mimotope; test: BLI
[2] = target: amphibian alpha-1 nAChR orthosteric site mimotope (Xenopus laevis); test: BLI; Octet RED 96; […] (1 µg/mL) […]; running buffer 1X DPBS with 0.1% BSA and 0.05% Tween-20; […], in triplicate

## alpha-cobratoxin (from UniProt P01391 1-71) (natural protein)
[1]
  AUC (potency) above that on the rodent mimotope: 30%
[2]
  AUC (potency) above that on the lizard mimotope: 50%
  AUC (potency) above that on the rodent mimotope: 98%
